Where two headings read alike, the source gives them in different places.
Experiments:
[1] = target: T1, N198A hNET (Homo sapiens, UniProt P23975, N198A); experiment: kinetic analysis of [3H]DA uptake, N198A hNET; format: cell-based; set-up: expressed in transfected cells; host or cells: CHO cells, transient transfection with Lipofectamine 2000
Description: (§1) The kinetic parameters of [^3H]DA uptake, maximal velocity (Vmax) and Michalis-Menton constant (Km), were determined in CHO cells transiently transfected with WT hNET and its mutants seeded in 24 well plates as described above. […] After the 10-min incubation period, cells were incubated for 8 min at room temperature with a series of one of six concentrations of mixed [^3H]DA (0.001–1.0 μM, final concentration). The reaction was terminated by the removal of solution from the wells followed by three rapid washes of ice-cold 1 x KRH. Cells were lysed with 500 μL of 1 % SDS for 1 h and radioactivity measured as described above. Specific hNET-mediated DA uptake was calculated by subtracting the nonspecific uptake (in the presence of desipramine and nomifensine) from the total uptake.
(§2) Results are presented as mean ± SEM. The number of n represents the number of independent experiments from each experiment group. Kinetic parameters (Vmax and Km) were determined from saturation curves by nonlinear regression analysis using a one-site model with variable slope. IC50 values for the substrate and inhibitors for [^3H]DA uptake were determined from nonlinear regression analysis inhibition curves using a one-site model with variable slope. GraphPad Prism (version 10.1.2.) was used to calculate the kinetic parameters and IC50 values for substrate and inhibitors inhibiting [^3H]DA uptake or [^3H] WIN35428. For any experiment involving comparisons between unpaired samples, unpaired Student’s t tests were used to determine any difference between parameters between WT hNET and its mutants. Log-transformed IC50 values were used for statistical comparisons. One-way ANOVA comparisons with repeat measurements were used for analyzing the [^3H]DA and [^3H]MPP^+ efflux data. Significant differences between samples were analyzed with independent ANOVAs followed by post-hoc tests, which is indicated in the Results Section of the efflux experiments. All statistical analyses were performed using the IBM SPSS Statistics version 29 and returned values of at least p < 0.05 were considered significant.

[2] = target: T2, E223A hNET (Homo sapiens, UniProt P23975, E223A); experiment: kinetic analysis of [3H]DA uptake, E223A hNET; format: cell-based; set-up: expressed in transfected cells; host or cells: CHO cells, transient transfection with Lipofectamine 2000
Description: as §1, §2

[3] = target: T3, WT hNET (Homo sapiens, UniProt P23975); experiment: kinetic analysis of [3H]DA uptake, WT hNET; format: cell-based; set-up: expressed in transfected cells; host or cells: CHO cells, transient transfection with Lipofectamine 2000
Description: as §1
Results are presented as mean ± SEM. […] Kinetic parameters (Vmax and Km) were determined from saturation curves by nonlinear regression analysis using a one-site model with variable slope. IC50 values for the substrate and inhibitors for [^3H]DA uptake were determined from nonlinear regression analysis inhibition curves using a one-site model with variable slope. […] Significant differences between samples were analyzed with independent ANOVAs followed by post-hoc tests, which is indicated in the Results Section of the efflux experiments. […]

[4] = target: T2, E223A hNET; experiment: basal [3H]DA and [3H]MPP+ efflux, E223A hNET; format: cell-based; set-up: expressed in transfected cells; host or cells: CHO cells, transient transfection with Lipofectamine 2000; details: across 90 min, preloaded 50 nM, 20 min
Description: (§3) To determine whether N198A or E223A hNET alters transporter conformational transients, [^3H]DA or [^3H]MPP^+ efflux was performed based on our previous studies ([Midde et al., 2015]; [Quizon et al., 2021]). Intact CHO cells in precoated 24-well plates transfected with WT hNET or its mutants were preloaded with [^3H]DA (50 nM final concentration) for 20 min or [^3H]MPP^+ (5 nM final concentration) for 30 min at room temperature. After the preloading period, cells were washed twice with 1 x KRH buffer before collecting fractional release samples. Total uptake of [^3H]DA or [^3H]MPP^+ at the zero time point was estimated from four wells per genotype that were lysed immediately with 1 % SDS after preloading period. Nonspecific uptake of [^3H]DA or [^3H]MPP^+ at zero time point was estimated from four wells per genotype that were incubated with the hNET inhibitors desipramine and nomifensine (100 μM and 10 μM final concentration, respectively) and lysed immediately with 1 % SDS after the preloading period. To collect fractional release, 500 μL of KRH buffer was added into a set of four wells and transferred to scintillation vials after 0 min as the initial fractional efflux. Fresh 500 μL of 1 x KRH buffer was added into the wells and incubated for 10 min then transferred to scintillation vials. Fractional efflux was collected every 10 min for 90 min ([^3H]DA) or 110 min ([^3H]MPP^+). […]

[5] = target: T1, N198A hNET; experiment: basal [3H]DA and [3H]MPP+ efflux, N198A hNET; format: cell-based; set-up: expressed in transfected cells; host or cells: CHO cells, transient transfection with Lipofectamine 2000; details: across 90 min, preloaded 50 nM, 20 min
Description: as §3

[6] = target: T1, N198A hNET; format: binding; set-up: expressed in transfected cells; host or cells: CHO cells, transient transfection with Lipofectamine 2000
[7] = target: T2, E223A hNET; format: binding; set-up: expressed in transfected cells; host or cells: CHO cells, transient transfection with Lipofectamine 2000
[8] = target: T3, WT hNET; format: binding; set-up: expressed in transfected cells; host or cells: CHO cells, transient transfection with Lipofectamine 2000
[9] = target: T3, WT hNET; experiment: Ki of rTat1-86 inhibiting [3H]DA uptake in WT hNET cell suspensions; format: cell-based; set-up: expressed in transfected cells; host or cells: CHO cells, transient transfection with Lipofectamine 2000
Description: To determine the inhibitor constant (Ki) of rTat1-86 inhibiting DA uptake in WT hNET, cells in 10 cm plates were cultured and transfected with WT hNET as described above. All reagents were made in 1 x KRH containing 0.1 % Protease Inhibitor Cocktail 1 (P2850, Sigma-Aldrich) and 0.1 % Protease Inhibitor Cocktail (P8340, Sigma-Aldrich). Cells were detached and harvested as described above. The cell suspensions were then incubated with a range of rTat1-86 (0.25–140 nM, final concentrations) for 20 min at room temperature. […] The reaction was then terminated as described above.

[10] = target: T3, WT hNET
[11] = target: T2, E223A hNET
[12] = target: T1, N198A hNET
[13] = per 10^6 cells, DA 0.001-1.0 μM

T2 sequence (P23975 whole entry E223A): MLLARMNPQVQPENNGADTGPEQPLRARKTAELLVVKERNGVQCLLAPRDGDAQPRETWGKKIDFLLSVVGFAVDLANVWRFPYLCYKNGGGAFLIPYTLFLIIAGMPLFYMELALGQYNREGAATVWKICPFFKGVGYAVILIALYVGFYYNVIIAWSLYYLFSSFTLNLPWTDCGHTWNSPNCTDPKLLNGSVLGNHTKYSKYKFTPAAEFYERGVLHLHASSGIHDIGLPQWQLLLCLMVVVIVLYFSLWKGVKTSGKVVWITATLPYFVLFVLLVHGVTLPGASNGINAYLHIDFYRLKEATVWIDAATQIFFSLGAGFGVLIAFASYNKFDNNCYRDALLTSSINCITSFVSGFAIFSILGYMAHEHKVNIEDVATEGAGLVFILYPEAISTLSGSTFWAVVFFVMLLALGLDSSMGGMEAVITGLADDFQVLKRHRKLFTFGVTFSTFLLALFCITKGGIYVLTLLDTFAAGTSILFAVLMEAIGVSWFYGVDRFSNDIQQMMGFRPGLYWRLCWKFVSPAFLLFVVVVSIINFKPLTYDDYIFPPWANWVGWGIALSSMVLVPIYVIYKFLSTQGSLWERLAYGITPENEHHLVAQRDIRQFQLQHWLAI
T3 sequence (P23975 whole entry): as the sequence (P23975 whole entry E223A) above, with A223E counted along it
T1 sequence (P23975 whole entry N198A): as the sequence (P23975 whole entry E223A) above, with N198A, A223E counted along it

Compound: NCCc1ccc(O)c(O)c1 [[^3H]DA, 3,4-ethyl-2[N-P^3PH]dihydroxyphenylethylamine]
- Km [1]: 0.084 ± 0.02 µM
- Km [2]: 0.066 ± 0.011 µM
- Km [3]: 0.057 ± 0.008 µM

Compound: [3H]c1c([3H])c(CCN)c([3H])c(O)c1O [[^3H]DA, 3,4-ethyl-2[N-P^3PH]dihydroxyphenylethylamine]
- reduction in Vmax of [3H]DA uptake compared to WT hNET [1]: 82.6%
- Vmax of [3H]DA uptake [1, 13]: 91.4 ± 16.4 fmol/min/10^6
- reduction in Vmax of [3H]DA uptake compared to WT hNET [2]: 71.2%
- Vmax of [3H]DA uptake [2, 13]: 151.1 ± 14.5 fmol/min/10^6
- Vmax of [3H]DA uptake [3, 13]: 525.4 ± 89.8 fmol/min/10^6
- overall [3H]DA efflux compared to WT hNET [4]: significantly reduced
- overall [3H]DA efflux compared to WT hNET [5]: significantly reduced

Compound: COC(=O)[C@H]1[C@@H](c2ccc(F)cc2)C[C@@H]2CC[C@H]1N2C [[^3H]WIN35428]
- specific [3H]WIN35428 binding [6]: 11361 ± 652 DPM
- specific [3H]WIN35428 binding normalized as a percentage of WT hNET [6]: 80.67 ± 4.6%
- specific [3H]WIN35428 binding [7]: 11806 ± 567 DPM
- specific [3H]WIN35428 binding normalized as a percentage of WT hNET [7]: 83.83 ± 4.0
- specific [3H]WIN35428 binding [8]: 14083 ± 1198 DPM
- specific [3H]WIN35428 binding normalized as a percentage of WT hNET [8]: 100 ± 8.5%

Compound: rTat1-86: recombinant HIV-1 transactivator of transcription (rTat1-86), purchased from ImmunoDX
- predicted occupancy of hNET molecules ([9]; 8.75 nM rTat1-86, approximately 2.6-fold the Ki): ~ 72%
- predicted occupancy of hNET molecules ([9]; 140 nM rTat1-86, approximately 41.2-fold the Ki): ~ 98%
- plateau of Tat's inhibitory effect on DA uptake ([9]; WT hNET, Tat concentrations from 8.75 nM to 140 nM): 65.2%
- Ki ([9]; WT hNET, rTat1-86 0.25-140 nM, 20 min, 50 nM [3H]DA, read-out: Ki for inhibiting hNET-mediated DA uptake): 3.4 nM
- reduction of specific [3H]DA uptake relative to control ([10]; 8.75 nM rTat1-86): 24.2%
- specific [3H]DA uptake with Tat, direct counts ([10]; 8.75 nM rTat1-86 (without Tat: 2778 ± 240)): 2106 ± 191 DPM
- reduction of specific [3H]DA uptake relative to control ([10]; 140 nM rTat1-86): 34.22%
- specific [3H]DA uptake with Tat, direct counts ([10]; 140 nM rTat1-86 (without Tat: 1870 ± 238)): 1230 ± 163 DPM
- reduction of specific [3H]DA uptake relative to control ([10]; 140 nM rTat1-86, listed as recombinant Tat1-86): 34%
- Tat-induced reduction of [3H]DA uptake compared to its control ([11]; 8.75 nM rTat1-86): attenuated
- specific [3H]DA uptake with Tat, direct counts ([11]; 8.75 nM rTat1-86 (without Tat: 2113 ± 237)): 1950 ± 215 DPM
- reduction of specific [3H]DA uptake relative to control ([11]; 140 nM rTat1-86): 26.98%
- specific [3H]DA uptake with Tat, direct counts ([11]; 140 nM rTat1-86 (without Tat: 1711 ± 261)): 1206 ± 239 DPM
- Tat-induced reduction of [3H]DA uptake compared to its control ([12]; 8.75 nM rTat1-86): attenuated
- specific [3H]DA uptake with Tat, direct counts ([12]; 8.75 nM rTat1-86 (without Tat: 1934 ± 210)): 1883 ± 175 DPM
- Tat-induced reduction of [3H]DA uptake compared to its control ([12]; 140 nM rTat1-86): attenuated
- specific [3H]DA uptake with Tat, direct counts ([12]; 140 nM rTat1-86 (without Tat: 912 ± 212)): 954 ± 213 DPM

Source: PMC13046434 (European journal of pharmacology, 2025)
